# Measurements from patent publication US20150118700.
# T1: α-fructosyl hexapeptide (α-fructosyl-valyl-histidyl-leucyl-threonyl-propyl-glutamic acid)
# T1 chain: VHLTPE
# T2: α-fructosyl valyl histidine
# T2 chain: VH
# What was measured:
# [1] = target: T1, α-fructosyl hexapeptide …
# [2] = target: T2, α-fructosyl valyl histidine
Protein,"Specific activity (U/mg), 1 mM αF6P [1]","αF6P oxidation activity, relative to αFVH oxidation activity designated to be 100 (relative (αFVH = 100)) [1]","Specific activity (U/mg), 1 mM αFVH [2]",other results
PnFX-62D/106K/110L/113K (protein) MAPSRANTSVIVVGGGGTIGSSTALHLVRSGYTPSNVTVLDAYPIPSSQSAGNDLNKIMGVDLRNPVDLQLALEARQMWNEDELFKKFFHNTGRLDCAHGEKDIAKLKSLYQKLVDAGLDATNEWLDSEDEILKRMPLLSRDQIKGWKAIFSKDGGWLAAAKAINAVGEYLRDQGVRFGFYGAGSFKAPLLAEGVCIGVETVDGTRYYADKVVLAAGAWSPTLVELHEQCVSKAWVYGHIQLTPEEAARYKNSPVVYNGDVGFFFEPNEHGVIKVCDEFPGFTRFKMHQPFGAKAPKRISVPRSHAKHPTDTIPDASDVSIRRAIATFMPQFKNKKMFNQAMCWCTDTADAALLICEHPEWKNFVLATGDSGHSFKLLPNIGKHVVELLEGTLADDLAHAWRWRPGSGDALKSRRSAPAKDLADMPGWNHDKPRANL,0.125 U/mg,,,"specific activity on αF6P, fold over PnFX [1]: specific activity was elevated by 13.7 fold"
PnFX-62D/63H/106K/110L/113K/351S (protein) MAPSRANTSVIVVGGGGTIGSSTALHLVRSGYTPSNVTVLDAYPIPSSQSAGNDLNKIMGVDHRNPVDLQLALEARQMWNEDELFKKFFHNTGRLDCAHGEKDIAKLKSLYQKLVDAGLDATNEWLDSEDEILKRMPLLSRDQIKGWKAIFSKDGGWLAAAKAINAVGEYLRDQGVRFGFYGAGSFKAPLLAEGVCIGVETVDGTRYYADKVVLAAGAWSPTLVELHEQCVSKAWVYGHIQLTPEEAARYKNSPVVYNGDVGFFFEPNEHGVIKVCDEFPGFTRFKMHQPFGAKAPKRISVPRSHAKHPTDTIPDASDVSIRRAIATFMPQFKNKKMFNQAMCWCTDTADSALLICEHPEWKNFVLATGDSGHSFKLLPNIGKHVVELLEGTLADDLAHAWRWRPGSGDALKSRRSAPAKDLADMPGWNHDKPRANL,0.667 U/mg,,,
CFP-T7 (protein) MTSNRADTRVIVVGGGGTIGSSTALHLVRSGYAPANITVLDTFEIPSAQSAGHDLNKIMGIRLRNKVDLQMSLEARQMWKEDELFQPFFHNTGRMDCEHTPEGIEDLKKQYQALHDAGAGLEKTHAWLDNEDEILSKMPLLQRDQIQGWKAIWSQDGGWLAAAKAINAIGQFLKERGVKFGFGGAGSFKQPLFDDEGTTCIGVETADGTKYYADKVVLAAGAWSPTLVDLEDQCCSKAWVYAHIQLTPEEAAEYKGVPVVYNGEFGFFFEPDEFGVIKVCDEFPGFSRFKEHQPYGAPSPKRISVPRSHAKHPTDTYPDASEVSIKKAIATFLPRFQDKELFNRALCWCTDTADAALLMCEHPKWKNFILATGDSGHSFKILPNVGKYVVELIEGRLPEEMAYQWRWRPGGDALKSRRAAPPKDLADMPGWKHDPKL,0 U/mg,0,16.5 U/mg,ΔA at 751 nm (hydrogen peroxide generated upon oxidation of αF6P) against αF6P concentration [1]: no correlation was observed between ΔA and αF6P concentration
CFP-T7-H20 (protein) MTSNRADTRVIVVGGGGTIGSSTALHLVRSGYAPANITVLDTFEIPSAQSAGHDLNKIMGIDLRNKVDLQMSLEARQMWKEDELFQPFFHNTGRMDCEHTPEGIEKLKKLYQKLHDAGAGLEKTHAWLDNEDEILSKMPLLQRDQIQGWKAIWSQDGGWLAAAKAINAIGQFLKERGVKFGFGGAGSFKQPLFDDEGTTCIGVETADGTKYYADKVVLAAGAWSPTLVDLEDQCCSKAWVYAHIQLTPEEAAEYKGVPVVYNGEFGFFFEPDEFGVIKVCDEFPGFSRFKEHQPYGAPSPKRISVPRSHAKHPTDTYPDASEVSIKKAIATFLPRFQDKELFNRALCWCTDTADAALLMCEHPKWKNFILATGDSGHSFKILPNVGKYVVELIEGRLPEEMAYQWRWRPGGDALKSRRAAPPKDLADMPGWKHDPKL,0.85 U/mg,20.5,4.28 U/mg,"αF6P oxidation activity ratio (reference, designated to be 100) (relative (CFP-T7-H20 = 100)) [1]: 100"
CFP-T7-62D (protein) MTSNRADTRVIVVGGGGTIGSSTALHLVRSGYAPANITVLDTFEIPSAQSAGHDLNKIMGIDLRNKVDLQMSLEARQMWKEDELFQPFFHNTGRMDCEHTPEGIEDLKKQYQALHDAGAGLEKTHAWLDNEDEILSKMPLLQRDQIQGWKAIWSQDGGWLAAAKAINAIGQFLKERGVKFGFGGAGSFKQPLFDDEGTTCIGVETADGTKYYADKVVLAAGAWSPTLVDLEDQCCSKAWVYAHIQLTPEEAAEYKGVPVVYNGEFGFFFEPDEFGVIKVCDEFPGFSRFKEHQPYGAPSPKRISVPRSHAKHPTDTYPDASEVSIKKAIATFLPRFQDKELFNRALCWCTDTADAALLMCEHPKWKNFILATGDSGHSFKILPNVGKYVVELIEGRLPEEMAYQWRWRPGGDALKSRRAAPPKDLADMPGWKHDPKL,0.018 U/mg,,1.62 U/mg,"specific activity on αF6P, fold over PnFX (Present Invention 26/Comparative Example 3) [1]: 2 times (Present Invention 26/Comparative Example 3) to 1,940 times (Present Invention 25/Comparative Example 2) greater"
CFP-T7-H35 (protein) MTSNRADTRVIVVGGGGTIGSSTALHLVRSGYAPANITVLDTFEIPSAQSAGHDLNKIMGIDHRNKVDLQMSLEARQMWKEDELFQPFFHNTGRMDCEHTPKGIEKLKKLYQKLHDAGAGLEKTHAWLDNEDEILSKMPLLQRDQIQGWKAIWSQDGGWLAAAKAINAIGQFLKERGVKFGFGGAGSFKQPLFDDEGTTCIGVETADGTKYYADKVVLAAGAWSPTLVDLEDQCCSKAWVYAHIQLTPEEAAEYKGVPVVYNGEFGFFFEPDEFGVIKVCDEFPGFSRFKEHQPYGAPSPKRISVPRSHAKHPTDTYPDASEVSIKKAIATFLPRFQDKELFNRALCWCTDTADSALLMCEHPKWKNFILATGDSGHSFKILPNVGKYVVELIEGRLPEEMAYQWRWRPGGDALKSRRAAPPKDLADMPGWKHDPKL,4.27 U/mg,,1.9 U/mg,"specific activity on αF6P, fold over FAOAo2 (Present Invention 25/Comparative Example 2) [1]: 2 times (Present Invention 26/Comparative Example 3) to 1,940 times (Present Invention 25/Comparative Example 2) greater; ΔA at 751 nm (hydrogen peroxide generated upon oxidation of αF6P) against αF6P concentration [1]: a favorable correlation was developed between ΔA and αF6P concentration in the range of αF6P concentration from 0.5 µM to 10 µM; αF6P oxidation activity ratio, relative to CFP-T7-H28 = 100 as the table shows (relative (CFP-T7-H28 = 100)) [1]: 206"
CFP-T7-H2-62N (protein) MTSNRADTRVIVVGGGGTIGSSTALHLVRSGYAPANITVLDTFEIPSAQSAGHDLNKIMGINLRNKVDLQMSLEARQMWKEDELFQPFFHNTGRMDCEHTPEGIEDLKKLYQALHDAGAGLEKTHAWLDNEDEILSKMPLLQRDQIQGWKAIWSQDGGWLAAAKAINAIGQFLKERGVKFGFGGAGSFKQPLFDDEGTTCIGVETADGTKYYADKVVLAAGAWSPTLVDLEDQCCSKAWVYAHIQLTPEEAAEYKGVPVVYNGEFGFFFEPDEFGVIKVCDEFPGFSRFKEHQPYGAPSPKRISVPRSHAKHPTDTYPDASEVSIKKAIATFLPRFQDKELFNRALCWCTDTADAALLMCEHPKWKNFILATGDSGHSFKILPNVGKYVVELIEGRLPEEMAYQWRWRPGGDALKSRRAAPPKDLADMPGWKHDPKL,,,,"αF6P oxidation activity ratio, relative to CFP-T7-H2 designated to be 100 (relative (CFP-T7-H2 = 100)) [1]: 120"
CFP-T7-H21 (protein) MTSNRADTRVIVVGGGGTIGSSTALHLVRSGYAPANITVLDTFEIPSAQSAGHDLNKIMGIDLRNKVDLQMSLEARQMWKEDELFQPFFHNTGRMDCEHTPEGIEKLKKLYQRLHDAGAGLEKTHAWLDNEDEILSKMPLLQRDQIQGWKAIWSQDGGWLAAAKAINAIGQFLKERGVKFGFGGAGSFKQPLFDDEGTTCIGVETADGTKYYADKVVLAAGAWSPTLVDLEDQCCSKAWVYAHIQLTPEEAAEYKGVPVVYNGEFGFFFEPDEFGVIKVCDEFPGFSRFKEHQPYGAPSPKRISVPRSHAKHPTDTYPDASEVSIKKAIATFLPRFQDKELFNRALCWCTDTADAALLMCEHPKWKNFILATGDSGHSFKILPNVGKYVVELIEGRLPEEMAYQWRWRPGGDALKSRRAAPPKDLADMPGWKHDPKL,0.795 U/mg,20.8,4.05 U/mg,
amadoriase exhibiting 95% sequence identity with ketoamine oxidase derived from Curvularia clavata (Cc95FX) (protein) MAPSRANTSVIVVGGGGTIGSSTALHLVRSGYTPSNITVLDAYPIPSSQSAGNDLNKIMGIRLRNKVDLQLSLEARQMWREDDLFKEYFHNTGRLDCAHGEEGLADLRQAYQALLDANAGLEETTEWLDSEDEILKKMPLLSRDQIKGWKAVYSQDGGWLAAAKAINAIGEYLRAQGVKFGFGGAGSFKQPLLAEGVCIGVETVDGTRYYADKVVLAAGAWSPTLVELHEQCVSKAWVYGHIQLTPEEAAEYKNSPVVYNGDVGFFFEPNEHGVIKVCDEFPGFTRFKMHQPFGAKAPKRISVPRSHAKHPTDTIPDASEKSIRKAIATFLPKFTEKELFNRHLCWCTDTADAALLICEHPEWKNFVLATGDSGHSFKLLPNIGKHVVELLEGTLADDLAHAWRWRPGSGDALKSRRSAPAKDLADMPGWKHDDVVKSKL,,0,,
Cc95FX-62D/63H/106K/110L/113K/353S (protein) MAPSRANTSVIVVGGGGTIGSSTALHLVRSGYTPSNITVLDAYPIPSSQSAGNDLNKIMGIDHRNKVDLQLSLEARQMWREDDLFKEYFHNTGRLDCAHGEEGLAKLRQLYQKLLDANAGLEETTEWLDSEDEILKKMPLLSRDQIKGWKAVYSQDGGWLAAAKAINAIGEYLRAQGVKFGFGGAGSFKQPLLAEGVCIGVETVDGTRYYADKVVLAAGAWSPTLVELHEQCVSKAWVYGHIQLTPEEAAEYKNSPVVYNGDVGFFFEPNEHGVIKVCDEFPGFTRFKMHQPFGAKAPKRISVPRSHAKHPTDTIPDASEKSIRKAIATFLPKFTEKELFNRHLCWCTDTADSALLICEHPEWKNFVLATGDSGHSFKLLPNIGKHVVELLEGTLADDLAHAWRWRPGSGDALKSRRSAPAKDLADMPGWKHDDVVKSKL,,237,,
